Assay results taken from patent publication US20260217860A1 (BIOCYTOGEN PHARMACEUTICALS BEIJING, published 2026).

B1: E-9A6-M-11E8 (bispecific antibody)
heavy 1: not shown
heavy 2: QVQLVQSGGGVVQPGRSLRLSCAASGFTFSSYAMHWVRQAPGKGLEWVAVISDDGINKYYADSVKGRFTISRDNSKNTLYLQMNSLRAEDSAVYYCARALPTIFGVVMYFYYGLDVWGQGTTATVSSASTKGPSVFPLAPSSKSTSGGTAALGCLVKDYFPEPVTVSWNSGALTSGVHTFPAVLQSSGLYSLSSVVTVPSSSLGTQTYICNVNHKPSNTKVDKKVEPKSCDKTHTCPPCPAPELLGGPSVFLFPPKPKDTLMISRTPEVTCVVVDVSHEDPEVKFNWYVDGVEVHNAKTKPREEQYNSTYRVVSVLTVLHQDWLNGKEYKCKVSNKALPAPIEKTISKAKGQPREPQVCTLPPSREEMTKNQVSLSCAVKGFYPSDIAVEWESNGQPENNYKTTPPVLDSDGSFFLVSKLTVDKSRWQQGNVFSCSVMHEALHNHYTQKSLSLSPGK
light: not shown
notes: Knobs-into-holes bispecific with a common light chain; also called anti-EGFR/MUC1 bispecific antibody
B2: E-9F3-M-11E8 (bispecific antibody)
heavy 1: not shown
heavy 2: QVQLVQSGGGVVQPGRSLRLSCAASGFTFSSYAMHWVRQAPGKGLEWVAVISDDGINKYYADSVKGRFTISRDNSKNTLYLQMNSLRAEDSAVYYCARALPTIFGVVMYFYYGLDVWGQGTTATVSSASTKGPSVFPLAPSSKSTSGGTAALGCLVKDYFPEPVTVSWNSGALTSGVHTFPAVLQSSGLYSLSSVVTVPSSSLGTQTYICNVNHKPSNTKVDKKVEPKSCDKTHTCPPCPAPELLGGPSVFLFPPKPKDTLMISRTPEVTCVVVDVSHEDPEVKFNWYVDGVEVHNAKTKPREEQYNSTYRVVSVLTVLHQDWLNGKEYKCKVSNKALPAPIEKTISKAKGQPREPQVCTLPPSREEMTKNQVSLSCAVKGFYPSDIAVEWESNGQPENNYKTTPPVLDSDGSFFLVSKLTVDKSRWQQGNVFSCSVMHEALHNHYTQKSLSLSPGK
light: not shown
notes: as for B1
B3: E-6C4-M-11E8 (bispecific antibody)
heavy 1: not shown
heavy 2: QVQLVQSGGGVVQPGRSLRLSCAASGFTFSSYAMHWVRQAPGKGLEWVAVISDDGINKYYADSVKGRFTISRDNSKNTLYLQMNSLRAEDSAVYYCARALPTIFGVVMYFYYGLDVWGQGTTATVSSASTKGPSVFPLAPSSKSTSGGTAALGCLVKDYFPEPVTVSWNSGALTSGVHTFPAVLQSSGLYSLSSVVTVPSSSLGTQTYICNVNHKPSNTKVDKKVEPKSCDKTHTCPPCPAPELLGGPSVFLFPPKPKDTLMISRTPEVTCVVVDVSHEDPEVKFNWYVDGVEVHNAKTKPREEQYNSTYRVVSVLTVLHQDWLNGKEYKCKVSNKALPAPIEKTISKAKGQPREPQVCTLPPSREEMTKNQVSLSCAVKGFYPSDIAVEWESNGQPENNYKTTPPVLDSDGSFFLVSKLTVDKSRWQQGNVFSCSVMHEALHNHYTQKSLSLSPGK
light: not shown
notes: as for B1
B4: E-9H2-M-11E8 (bispecific antibody)
heavy 1: not shown
heavy 2: QVQLVQSGGGVVQPGRSLRLSCAASGFTFSSYAMHWVRQAPGKGLEWVAVISDDGINKYYADSVKGRFTISRDNSKNTLYLQMNSLRAEDSAVYYCARALPTIFGVVMYFYYGLDVWGQGTTATVSSASTKGPSVFPLAPSSKSTSGGTAALGCLVKDYFPEPVTVSWNSGALTSGVHTFPAVLQSSGLYSLSSVVTVPSSSLGTQTYICNVNHKPSNTKVDKKVEPKSCDKTHTCPPCPAPELLGGPSVFLFPPKPKDTLMISRTPEVTCVVVDVSHEDPEVKFNWYVDGVEVHNAKTKPREEQYNSTYRVVSVLTVLHQDWLNGKEYKCKVSNKALPAPIEKTISKAKGQPREPQVCTLPPSREEMTKNQVSLSCAVKGFYPSDIAVEWESNGQPENNYKTTPPVLDSDGSFFLVSKLTVDKSRWQQGNVFSCSVMHEALHNHYTQKSLSLSPGK
light: not shown
notes: Knobs-into-holes bispecific with a common light chain; also called anti-EGFR/MUC1 bispecific antibody; E-9H2-M-llE8
B5: E-9D2-M-11E8 (bispecific antibody)
heavy 1: not shown
heavy 2: QVQLVQSGGGVVQPGRSLRLSCAASGFTFSSYAMHWVRQAPGKGLEWVAVISDDGINKYYADSVKGRFTISRDNSKNTLYLQMNSLRAEDSAVYYCARALPTIFGVVMYFYYGLDVWGQGTTATVSSASTKGPSVFPLAPSSKSTSGGTAALGCLVKDYFPEPVTVSWNSGALTSGVHTFPAVLQSSGLYSLSSVVTVPSSSLGTQTYICNVNHKPSNTKVDKKVEPKSCDKTHTCPPCPAPELLGGPSVFLFPPKPKDTLMISRTPEVTCVVVDVSHEDPEVKFNWYVDGVEVHNAKTKPREEQYNSTYRVVSVLTVLHQDWLNGKEYKCKVSNKALPAPIEKTISKAKGQPREPQVCTLPPSREEMTKNQVSLSCAVKGFYPSDIAVEWESNGQPENNYKTTPPVLDSDGSFFLVSKLTVDKSRWQQGNVFSCSVMHEALHNHYTQKSLSLSPGK
light: not shown
notes: as for B1

What follows are binders tested against T1, His-tagged human MUC1 protein hMUC1(24-1158)-His (human, UniProt P15941 24-1158) (assay: SPR, Biacore 8K, 1:1 fit;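 further: His-tagged targets captured on the chip at roughly 100 RU, antibody analytes flowed at 1 µg/mL in HBS-EP+ pH 7.4, 50 s association, 400 s dissociation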).
T1 construct: not shown: His tag

Row | Binder | Kd [nM] | koff [s⁻¹] | kon [M⁻¹ s⁻¹]
1 | B1 | 17.3 | 0.00137 | 79100
2 | B2 | 5.24 | 0.000543 | 104000
3 | B3 | 6.21 | 0.000575 | 92700
4 | B4 | 25.4 | 0.0101 | 400000
5 | B5 | 5.97 | 0.000554 | 92700
